Measured values reported in PMC6894054.

System: ILF3 mouse-human dsRBM2 (SPR) (mouse-human (so in the source))
Assay: SPR
Details: ELISA and SPR buffers not given in the material (SPR: Biacore T100, biotin-RNA on streptavidin chip); biopanning: TENT (10 mM Tris-HCl pH 8.0, 1 mM EDTA, 250 mM)

invSINEB2 of AS Uchl1 was tested. Which Kd did it give?
Its Kd is 94.9 nM.
